Values quoted from earlier work in publication PMC2895966.

Biological target: Pyrrhocoricin (Pyrrhocoris apterus) (UniProt P37362)
Sequence (P37362 whole entry): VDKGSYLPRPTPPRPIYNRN

DnaK SBD, sequence (P0A6Y8 389-607): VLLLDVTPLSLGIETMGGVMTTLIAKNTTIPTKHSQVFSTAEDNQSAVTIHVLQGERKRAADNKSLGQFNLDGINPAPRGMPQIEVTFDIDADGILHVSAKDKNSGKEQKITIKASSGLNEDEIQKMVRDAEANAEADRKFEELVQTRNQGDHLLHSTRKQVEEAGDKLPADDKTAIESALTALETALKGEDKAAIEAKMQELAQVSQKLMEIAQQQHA

Kd: 50 µM
Substance: DnaK SBD (from UniProt P0A6Y8)
